Data set [1] concerns Wheat xylanase inhibitors WXI11.5, eluted from the Xy1A1A affinity column with 50% ethylene glycol pH 11.5.
Data set [2] has as its system xylanase inhibitors present in wheat extract (WE).

Chain of Pichia pastoris produced Xy1A1A_E79A inactive xylanase (chain, as listed by the source E79A): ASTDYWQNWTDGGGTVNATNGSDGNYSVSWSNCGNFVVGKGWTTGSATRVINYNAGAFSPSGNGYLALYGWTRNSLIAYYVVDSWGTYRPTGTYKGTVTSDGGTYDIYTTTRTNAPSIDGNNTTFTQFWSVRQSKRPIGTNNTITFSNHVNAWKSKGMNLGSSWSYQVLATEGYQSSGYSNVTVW

In data set [1], “Pichia pastoris produced Xy1A1A_E79A inactive xylanase” showed a % Residual Activity of Avizyme 1310 with WXI pH11.5 (0.58 µg/ml) and XylA1A E79A (100 µg/ml) of 121%; a % Residual Activity of XylA1A with WXI pH11.5 (0.58 µg/ml) and XylA1A E79A (100 µg/ml) of 96.1%; a Xylanase Activity (umol/min/mg) of Avizyme 1310 with WXI pH11.5 (0.58 µg/ml) and XylA1A E79A (100 µg/ml) of 6880 µmol/min/mg; a Xylanase Activity (umol/min/mg) of XylA1A with WXI pH11.5 (0.58 µg/ml) and XylA1A E79A (100 µg/ml) of 4420 µmol/min/mg. Further, the “recovery of xylanase activity (azo-WAXY, A595) of added Xy1A1A in wheat flour extract” value in data set [2] is reported as “Of the 24 isolates tested, 9 showed recovery of xylanase activity”.

(Values after patent US20110053195.)
